Reference: US20260168983A1, “YaxAB NANOPORE, NANOPORE SYSTEM COMPRISING SAME AND APPLICATIONS THEREOF” (KOREA RESEARCH INSTITUTE OF BIOSCIENCE AND BIOTECHNOLOGY, priority 2022, published 2026)

Target: Bcl-xL protein, Q07817
Assay: YaxAB nanopore; Bcl-xL with a mix of four competing peptides at 1:15

Chain of Bcl-xL protein, Q07817 (Q07817 1-209): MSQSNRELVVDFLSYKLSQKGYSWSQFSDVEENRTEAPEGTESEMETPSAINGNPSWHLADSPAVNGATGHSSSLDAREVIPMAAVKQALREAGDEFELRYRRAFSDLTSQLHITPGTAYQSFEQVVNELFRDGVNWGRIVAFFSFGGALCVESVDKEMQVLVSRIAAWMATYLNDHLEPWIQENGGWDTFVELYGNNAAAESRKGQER

Binder: GQVGRQLAIIGDDANR (modifications not checked) [Bak_BH3_I85A, Q16611 72-87]
- signal frequency of the Bcl-xL-peptide complex: 7%

Binder: GQVGRQAAIIGDDINR (modifications not checked) [Bak_BH3_L78A, Q16611 72-87]
- signal frequency of the Bcl-xL-peptide complex: 3%
